Results from PMC1262761, “Expression and cytosolic assembly of the S-layer fusion protein mSbsC-EGFP in eukaryotic cells” (Microbial Cell Factories, 2005).

Biological target: the molecule itself
Test: in vitro recrystallisation (self-assembly) seen by electron microscopy (REM, TEM); FPLC-purified mSbsC-EGFP, denatured in Gua-HCl, dialysed against dH2O over night; assembled structures negatively stained with 3% ammonium molybdate pH 7.2

B1: mSbsC-EGFP fusion protein (mature S-layer protein SbsC, aa 31-1099, of Geobacillus stearothermophilus ATCC 12980 fused to EGFP), from E. coli (natural protein, UniProt O68840 31-1099, looked up)
chain: ATDVATVVSQAKAQMKEAYYTYSHTVTETGQFPDIKDVYAAYNKAKQAYANAVAVVNKAGGAKKDAYLADLQAIYETYVFKANPKSGEARVATYIDAYNYATKLDKMRQELKAAVDAKDLKKAEELYHKISYELKTRTVILDRVYGQSTRELLRSTFKADAQALRDRLIYDITVAMKAREAQDAVKAGNLDKAKAALDQVNQYVSKVTDAFKAELQKAAQDAKAAYEAALTPKVESVSAIDSTSFKVTFTKPVDKATAIPKNFSITLKGTETKLYPKSVEVSESGLTATVTLYDTLVDGKTYTVVTSGLKDTAGKEFETSTNEFTYNKPVPASITFNFNKLPEDSAVDLTKYVTVKDAAGNVIKSGFELEFTSSEKLTQGKFINTTGKKSVIVNATVKGTNVTTGNVILAVEDEKAAEVSELKLTKDNKEVVTLYANGNAFDKDGNQISSGTLTLTAKFKDQYGNELTGKVAGTDYTFESLNPEVLVVAPDGSVTPIVPGTALVKVKYGEVTKTIPVTVKANPVLETIAVDSTGVSVAKGQKATFKVTLKDQYGNKFTGNVNVTSDKTETATVSVSNSGIGQSEYTVTVNGVAEGSTTITIKSGTKEVKVPVNVVAGGPVANYQIKVLDDGKIDKSATESPANNDVQLKVYAVDANGNIVGDITNDVTITSEATDTNGVIVNASKSTANGDTVYVITDNGSKKVGKETLTVKLGTVTLGTVDVEVIDTTLKATVVTKKADLIELDAADNGDALAKLLANLDIKDQNGNPMVDSAATPNTNEKLQALKSVLSGIVSSDTSVIGSVSNVDNLKDDASISGLAVKKAGTVTLTLVFNEDSKIAPIAITVKAPAATQDGVTVTGLDLVPGVTGVGKTKFTATDKIKSGHKLYYAVDDSAVPAPAVGTTRNSTKFANEITVGTTEVAANAGQIITVIEVDSSDRVVGYKTFTVEAADLSVAADKTGFTATVTPTGGNQVTTGKTLLAVSDLANGHKLYAAAAGSSAAAAPVKGIAYTDTTVRTTYGTEVTSGTVEVDAQDGQHISIIEVDENGKVVGYKDYTITGIQIGTKSAS
notes: S-layer protein SbsC of Geobacillus stearothermophilus ATCC 12980, mature part, aa 31-1099 (without the 30 aa N-terminal secretion signal); an ATG initiation codon was introduced 5' of the reading frame by the primer; A Met from the introduced ATG precedes residue 31; A two-residue linker (Leu-Glu, from the XhoI site) stands between SbsC and the EGFP reading frame (720 bp, from the Clontech …)
**Q.** Does B1 bind?
**A.** binds
